Reference: US5108916A, “Process for stereoselectively hydrolyzing, transesterifying or esterifying with immobilized isozyme of lipase from Candida rugosa” (priority 1989, dated 1992)

How the values were obtained:
[1] = Hydrolysis of R,S-HPPA methyl ester by free lipase or isozyme in aqueous buffer, R and S acids by HPLC; assay type: biochemical
Method: Lipase MY (Meito Sangyo), 340mg, 4g of R,S-HPPA methyl ester, and 200ml of 20mM KH2 PO4 (adjusted to pH 6.5) were mixed, with shaking, for 5.5 hours.
Analysis of the acid formed was carried out by extraction of the ester after adjustment of the aqueous solution to pH 6.5 (a slight pH drop occurs on hydrolysis) with CH2 Cl2 followed by adjusting the pH to 2 and extraction of the acid with ethyl acetate. The solution was evaporated to dryness, taken up in water and analyzed by HPLC with a Macherey Nagel-Duren Resolvosil BSA- column using 5% n-propanol, 10mM KH2 PO4, pH 5 at 2.7ml/min with detection at 220nm. At that time 35% of the R, S-ester was converted to the acid. The ratio of R and S acids was 94% R and 6% S.
Lipase MY (Meito Sangyo), Candida lipase B (Biocatalyst, Ltd), lipase OF (Meito Sangyo), and Lipase AY (Amano) were compared for stereoselectivity for production of R-HPPA from R,S-HPPA methyl ester. The preparations, in amounts shown in Table I, were added to 50 ml of 20 mM HPPA methyl ester in 50 mM KH2 PO4 pH 6.5. […] The ratio of R to S acid was determined by HPLC as described in Example 3 at approximately 16% hydrolysis of the ester.
Two hundred mls of KH2 PO4 (pH 6.5) was combined with 400 mg HPPA-Me and 500 units of T. californica acetylcholine esterase. The reaction mixture was shaken for 24 hours and then sampled and analyzed as in Example 3. […]

[2] = Hydrolysis of ketoprofen esters by lipases, acid by HPLC, ee via diastereomeric amides; assay type: biochemical
Method: To a solution of 9ml of 100mM ammonium phosphate (pH 5.5) in 50 ml Erlenmeyer flask a weighed amount of ester (either directly or dissolved in 200 ul DMF) was added. A solution of the weighed amount of enzyme in 1 ml of the same buffer was added. The mixture was agitated in a rotary shaker at 250 RPM at 35° C. typically for 22 hours. The reaction mixture was acidified with 8 drops 6(N) HCl to pH 1.5-2.0, extracted with CHCl3 (2×10 ml). The CHCl3 solution was analyzed by HPLC to determine the percent of acid produced in the hydrolysis.
The CHCl3 extract (5 ml) of the hydrolysis reaction was dried over anhydrous Na2 SO4 and filtered. The filtrate was cooled to 0° C. in stoppered vials and 100 ul of N-methylmorpholine, followed by 100 ul of isobutyl chloroformate were added. After gently shaking at 0° C. for 10 minutes, 100 ul of D-(+)-1-phenylethylamine was added and gently shaking at 0° C. was continued for 5 minutes. The reaction mixture was then shaken at room temperature for 5 minutes. The reaction mixture was washed with water (5 ml), 1(N) HCl (5 ml) and again with water (5 ml). The diastereomeric amides produced were then analyzed by HPLC on a column as specifically noted to determine the ee (%S-%R) of the acid produced by enzymatic hydrolysis of the esters.
Ketoprofen esters (50 mg) were hydrolyzed as above. HPLC analysis for the amount of acid produced for the ketoprofen monoglyceride and ketoprofen ethylene glycol ester hydrolysis were performed on Partisil 5 ODS-3 RAC column (9.4 mm×100 mm, Whatman) using CH3 OH: 10mM (NH4)H2 PO4 (60:40) at 4 ml/min and monitoring at 254 nm. HPLC analysis of the acid produced in the hydrolysis of the other esters were done on ODS-3 RAC column using CH3 OH: 10 mM (NH4)H2 PO4 (80:20) at 2ml/min and monitoring at 254 nm. The enantiomeric excess of the ketoprofen produced for each hydrolysis was determined by analysis of the amides by HPLC on ODS-3 RAC column using CH3 OH:10 mM (NH4)H2 PO4 (60:40) at 4 ml/min and monitoring at 254 nm. […]
To determine whether oleic acid could be used to enhance the rate/selectivity using other lipase and/or substrates, the following experiment was performed. 50 mg of either the diethylene glycol ester, triethylene glycol monomethyl ester, monoglyceride ester, or ethylene glycol ester was placed in 50 ml Erlenmeyer flasks. To this was added 50 mg of Lipase MY, 50 mg of the Mucor miehei lipase, 2.5 mg of the Candida cylindracea lipase (Biocatalyst), or 5 mg of lipase OF, all in 1 ml of buffer. 10 ul of pig liver esterase was also used. Oleic acid was added to the flasks at 200 ul. Buffer was added to a final volume of 10 ml, and the flasks were incubated at 35.C, 250 rpm, acidified, and extracted with CHCl3 and analyzed by HPLC as in Example 18.

[3] = diethylene glycol ester, enzyme alone
[4] = ethylene glycol ester, + oleic acid
[5] = ethylene glycol ester, enzyme alone
[6] = monoglyceride ester, + oleic acid
[7] = monoglyceride ester, enzyme alone
[8] = monomethyl triethylene glycol ester, + oleic acid
[9] = monomethyl triethylene glycol ester, enzyme alone

B1: acetylcholinesterase of T. californica: acetylcholine esterase from Torpedo californica (protein, UniProt P04058 22-564, looked up)
Acetylcholinesterase: DDHSELLVNTKSGKVMGTRVPVLSSHISAFLGIPFAEPPVGNMRFRRPEPKKPWSGVWNASTYPNNCQQYVDEQFPGFSGSEMWNPNREMSEDCLYLNIWVPSPRPKSTTVMVWIYGGGFYSGSSTLDVYNGKYLAYTEEVVLVSLSYRVGAFGFLALHGSQEAPGNVGLLDQRMALQWVHDNIQFFGGDPKTVTIFGESAGGASVGMHILSPGSRDLFRRAILQSGSPNCPWASVSVAEGRRRAVELGRNLNCNLNSDEELIHCLREKKPQELIDVEWNVLPFDSIFRFSFVPVIDGEFFPTSLESMLNSGNFKKTQILLGVNKDEGSFFLLYGAPGFSKDSESKISREDFMSGVKLSVPHANDLGLDAVTLQYTDWMDDNNGIKNRDGLDDIVGDHNVICPLMHFVNKYTKFGNGTYLYFFNHRASNLVWPEWMGVIHGYEIEFVFGLPLVKELNYTAEEEALSRRIMHYWATFAKTGNPNEPHSQESKWPLFTTKEQKFIDLNTEPMKVHQRLRVQMCVFWNQFLPKLLNATACDGELSS
[1]
  stereoselective hydrolysis of HPPA-Me to R-HPPA: did not stereoselectively hydrolyze
[1]; 500 units, 400 mg HPPA-Me, pH 6.5, 24 hours
  hydrolyzing activity on HPPA-Me: Very little hydrolyzing activity

B2: Mucor miehei: Mucor miehei lipase (protein, UniProt P19515 95-363, looked up)
Lipase: SIDGGIRAATSQEINELTYYTTLSANSYCRTVIPGATWDCIHCDATEDLKIIKTWSTLIYDTNAMVARGDSEKTIYIVFRGSSSIRNWIADLTFVPVSYPPVSGTKVHKGFLDSYGEVQNELVATVLDQFKQYPSYKVAVTGHSLGGATALLCALDLYQREEGLSSSNLFLYTQGQPRVGDPAFANYVVSTGIPYRRTVNERDIVPHLPPAAFGFLHAGEEYWITDNSPETVQVCTSDLETSDCSNSIVPFTSVLDHLSYFGINTGLCT
[2]; diethylene glycol ester, + oleic acid
  % ee (R = R-acid): 2R
[2]; diethylene glycol ester, + oleic acid 200 ul
  % Acid: 20%
[2]; [3]
  % Acid: 24%
  % ee (R = R-acid): 41R
[2]; [4]
  % Acid: 10%
  % ee (R = R-acid): 42R
[2]; [5]
  % Acid: 17%
  % ee (R = R-acid): 54R
[2]; [6]
  % Acid: 4%
  % ee (R = R-acid): 35R
[2]; [7]
  % Acid: 20%
  % ee (R = R-acid): 40R
[2]; [8]
  % Acid: 6%
  % ee (R = R-acid): 1R
[2]; [9]
  % Acid: 26%
  % ee (R = R-acid): 36R
